Reference: article PMC13342644, “Structural basis for transport and inhibition of nucleotide sugar transport in pathogenic fungi” (Nature Communications, 2026)
“Also recorded” adds a separate entry of the source.

Legend:
[1] = molecular target: T1, C. albicans Vrg4 (CaVrg4) (Candida albicans, UniProt Q5A477); experiment: Liposome 3H-GMP transport assay in the presence of nanobodies; type: biochemical
T1 sequence (Q5A477 34-371 limits assumed): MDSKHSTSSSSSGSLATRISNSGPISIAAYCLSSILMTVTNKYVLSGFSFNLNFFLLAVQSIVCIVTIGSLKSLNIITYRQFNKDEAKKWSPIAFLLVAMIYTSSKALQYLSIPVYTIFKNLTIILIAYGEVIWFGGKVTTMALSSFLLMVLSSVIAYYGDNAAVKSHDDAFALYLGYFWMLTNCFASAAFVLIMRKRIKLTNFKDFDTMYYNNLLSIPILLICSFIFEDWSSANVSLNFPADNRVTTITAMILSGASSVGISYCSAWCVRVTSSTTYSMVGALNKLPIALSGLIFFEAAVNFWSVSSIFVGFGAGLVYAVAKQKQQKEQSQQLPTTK
Experimental: (§1) CaVrg4 was reconstituted into liposomes using the dilution method into preformed lipid vesicles. Chloroform was removed from the lipids using a rotary evaporator to obtain a thin film. The lipids were washed twice in pentane and then resuspended at 10–20 mg ml^−1 in lipid buffer (20 mM HEPES, pH 7.5, 100 mM KCl). These lipid vesicles were frozen and thawed twice in liquid nitrogen, then stored at −80 °C until use. For reconstitution, the lipids were thawed and then extruded first through a 0.8-μm filter and then through a 0.4-μm filter. […] After this time, the protein–lipid mix was diluted rapidly into 65 mL of assay buffer (20 mM HEPES, pH 7.5, 50 mM KCl, 2 mM MgSO4) and the proteoliposomes were collected through centrifugation at >200,000 x g for 2 h. To remove trace detergent, the proteoliposomes were dialysed overnight against a large volume (3 L) of assay buffer. After dialysis, the proteoliposomes were collected and resuspended in assay buffer to a final protein concentration of 0.5 μg μl^−1, and then subjected to two rounds of freeze–thawing in liquid nitrogen before storage at −80 °C. The amount of protein reconstituted into the lipids was quantified by SDS–PAGE and densitometry. […] The final buffer was PBS. For all the assays, the lipid mix consisted of POPE:POPG:Ecoli Polar lipid Extract:EggPC in a 27:7:9:1 ratio.
(§2) All assays were performed at 30 °C.

C. auris Vrg4 = experiment: Liposome 3H-GMP transport assay in the presence of nanobodies (specificity control); type: biochemical; details: Vrg4 from Candida auris
Experimental: as §1, §2

S. cerevisiae Vrg4 = experiment: as above; type: biochemical, Saccharomyces cerevisiae; details: Vrg4 from S. cerevisiae
[2] = test system: yeast strain NDY5 overexpressing C. albicans Vrg4; experiment: Hygromycin B-based in vivo viability (growth) assay; type: cell-based, Saccharomyces cerevisiae; details: NDY5 + C. albicans Vrg4, in the presence of hygromycin B
Experimental: The yeast was grown in minimal media to select for the plasmids, and the expression of the nanobody was induced with galactose. After overnight galactose induction, the yeast culture was diluted, and growth was monitored over 30 h.
An overnight culture was grown in minus -Leu-Ura medium containing 2% glucose and then diluted 1:10 into medium containing 2% lactate. After 9 h of growth, 2% galactose was added, and the cultures were left overnight. […] The cultures were grown at 30 °C with shaking, and growth was monitored over the next 30 h by measuring the OD.

B1: NB3: inhibitory nanobody specific for C. albicans Vrg4, stabilises the Golgi-facing state (antibody, V domains shown)
VH: QVQLVESGGGLVQPGGSLRLSCAASGSISEINVMGWYRQAPGKQRELVARITTGGSTNYADSVKGRFTISRDNAKNTVYLQMNSLKPEDTAVYMCNAHRRVVMEWGPLGYDYWGQGTQVTVSS
In the case of B1, the “Effect on transport function (uptake of 3H GMP into liposomes), in words” value [1] is reported as “full inhibition”, the “Detectable inhibition, in words” value (C. auris Vrg4) is reported as “neither NB3 nor NB4 showed any detectable inhibition” and the “Detectable inhibition, in words” value (S. cerevisiae Vrg4) is reported as “neither NB3 nor NB4 showed any detectable inhibition”. The “Growth / sensitivity to hygromycin B, in words” value [2] was “sensitivity of this strain to HyB manifests; also recorded: slow growth phenotype”.

B2: NB4: inhibitory nanobody specific for C. albicans Vrg4, stabilises the cytoplasmic-facing state (antibody, V domains shown)
VH: QVQLVESGGGLVQAGGSLRLSCAASGRTFRSYTLGWFRQAPGKEREFVAAIKWSTDTTYYADSVKGRFTISGDNAKNTVYLQMNSLKPEDTAVYFCAARSLSTVIAGPEIPWPYNSWGQGTQVTVSS
With B2 the “Effect on transport function (uptake of 3H GMP into liposomes), in words” value [1] was “full inhibition”, the “Detectable inhibition, in words” value (C. auris Vrg4) was “neither NB3 nor NB4 showed any detectable inhibition” and the “Detectable inhibition, in words” value (S. cerevisiae Vrg4) was “neither NB3 nor NB4 showed any detectable inhibition”. The “Growth / sensitivity to hygromycin B, in words” value [2] was “sensitivity of this strain to HyB manifests; also recorded: slow growth phenotype”.
